Data: US7041458B2, “Methods and reagents for determining protein S” (priority 1996, dated 2006)
Like-named read-outs stand apart in the source and are kept apart here. Where no end group is shown, it is not given here.

Legend:
[1] = target: T1, protein S-C4BP interaction (Homo sapiens, UniProt P20851); assay: Peptide inhibition of the protein S-C4BP interaction in microtiter plates (equilibrium binding assay, 125I-labelled protein S tracer, immobilized C4BP); conditions: displacement of 125I-labelled protein S from immobilized C4BP, EDTA buffer; read-out: half-maximum inhibition
T1 construct: C4BPβ was first isolated from human plasma in the form of the protein S-C4BP complex; from tissue; host or cells: human plasma
T1 sequence (P20851 18-252): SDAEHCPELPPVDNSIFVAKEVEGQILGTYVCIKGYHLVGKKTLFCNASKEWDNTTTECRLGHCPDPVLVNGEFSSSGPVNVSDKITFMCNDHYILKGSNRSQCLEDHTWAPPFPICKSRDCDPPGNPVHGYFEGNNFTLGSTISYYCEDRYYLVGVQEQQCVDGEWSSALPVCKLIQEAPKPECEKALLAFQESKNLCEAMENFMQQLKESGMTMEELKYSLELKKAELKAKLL
T1 sequence (P04003 49-597 partner): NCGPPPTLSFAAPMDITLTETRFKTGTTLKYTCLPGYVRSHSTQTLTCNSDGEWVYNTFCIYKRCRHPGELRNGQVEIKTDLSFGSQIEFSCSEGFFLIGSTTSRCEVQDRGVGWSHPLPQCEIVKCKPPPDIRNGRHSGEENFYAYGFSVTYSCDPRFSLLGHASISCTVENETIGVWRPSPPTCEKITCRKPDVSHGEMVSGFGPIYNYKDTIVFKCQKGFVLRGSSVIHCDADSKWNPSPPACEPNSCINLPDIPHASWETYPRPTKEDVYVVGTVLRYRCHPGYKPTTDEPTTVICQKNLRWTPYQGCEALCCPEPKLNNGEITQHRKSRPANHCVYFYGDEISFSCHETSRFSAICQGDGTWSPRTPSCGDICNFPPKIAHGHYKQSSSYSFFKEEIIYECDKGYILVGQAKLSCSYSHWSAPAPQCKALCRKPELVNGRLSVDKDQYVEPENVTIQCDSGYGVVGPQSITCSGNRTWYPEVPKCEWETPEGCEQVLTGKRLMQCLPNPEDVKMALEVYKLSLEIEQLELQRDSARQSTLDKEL
Description: D. Peptide Inhibition of the Protein S-C4BP Interaction in Microtiter Plates.
(§1) Microtiter plates were coated with C4BP, 50 μl/well, 10 μg/ml in 0.075 M sodium carbonate buffer, pH 9.6. The plates were incubated over night at 4° C. and then washed with TBS, pH 7.5, containing 0.1% Tween 20. […] The wells were then washed and the amount of bound protein S detected using a γ-counter.
As disclosed in Section D, the synthetic peptides were tested for their ability to displace binding of a ^125I-labelled protein S tracer to immobilized C4BP (FIG. 5A).
(§2) In these figures, peptide inhibition of the protein S-C4BP interaction is shown as the amount of protein S bound (relative to the amount bound in the absence of peptide) versus concentration of the nine peptides listed in Table 1: (o) SL1, (♦) SL2, (□) SL3, (+) SL4, (⋄) SL5, (●) SL6, (▾) SL7, (Δ) BD4 & (∇) BD6. In FIG. 5A, the result from an equilibrium binding assay using immobilized C4BP in microtiter wells and radiolabelled human protein S is shown. […] In FIG. 5B, the result from surface plasmon resonance assay on a BIAcore™ sensorchip is shown. The amount of protein S bound, X, was calculated from the observed signal intensity, S, compared to the maximum signal intensity in the absence of peptide Smax, as X=(S−0.04)/0.96 Smax.

[2] = target: T1, protein S-C4BP interaction; assay: Peptide inhibition of the protein S-C4BP interaction by surface plasmon resonance (BIAcore, immobilized C4BP); format: binding
Description: E. Peptide Inhibition of the Protein S-C4BP Interaction According to Surface Plasmon Resonance Studies.
The surface plasmon resonance studies were performed using a BIAcore™ apparatus from Pharmacia Biosensor AB. Immobilization of C4BP to the dextran coated gold surface of a sensorchip was performed at a flow rate of 5 μl/min, using HC as flow buffer. Equal volumes of 0.1 M NHS and 0.1 M EDC were first mixed, whereafter 30 μl of the mixture was flown over the sensorchip surface to activate the carboxymethylated dextran. C4BP was then injected over the sensorchip (40 μl of a 60 μg/ml solution in 10 mM NaOAc at pH 4.75), whereafter unreacted NHS-ester groups were blocked by 15 μl 1M ethanolamine (pH 8.5). The system was regenerated by addition of 15 μl 0.1 M HCl, which removes all non-covalently bound molecules. The immobilized amount of C4BP was 8000 RU. Protein S association was monitored with 50 nM human protein S in HC buffer in a continuous flow of 1 μl per minute during 45 minutes. The ability of each peptide to inhibit the protein S binding was studied by following the association to C4BP for mixtures of protein S and peptide. In BIAcore™, the total amount of bound material is measured, and the peptides are 25-fold smaller than protein S, inhibition of protein S-binding by peptide binding will drastically lower the observed response during the association phase. The percent protein S bound, X, was calculated as X=(S−0.04Smax)/0.96Smax where S is the measured response and Smax is the response obtained in the absence of peptide.
As disclosed in Section E, the ability of the synthetic peptides to inhibit the binding of human protein S to C4BP was also studied using surface plasmon resonance on a BIA-core™ system.
as §2

C4BP [3] = target: T2, C4BP (Homo sapiens, UniProt P20851); assay: Fluorescence polarization titration of peptides with C4BP (results not shown); format: binding; conditions: read-out: dissociation constant KD of the peptide-C4BP complex
T2 sequence (P20851 18-252): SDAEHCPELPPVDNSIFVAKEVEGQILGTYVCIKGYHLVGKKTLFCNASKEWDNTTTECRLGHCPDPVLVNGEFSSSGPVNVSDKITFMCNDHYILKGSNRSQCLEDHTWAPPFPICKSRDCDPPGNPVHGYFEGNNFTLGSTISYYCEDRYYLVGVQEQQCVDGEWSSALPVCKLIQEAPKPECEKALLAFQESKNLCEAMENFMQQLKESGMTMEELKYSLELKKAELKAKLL
T2 sequence (P04003 49-597 partner): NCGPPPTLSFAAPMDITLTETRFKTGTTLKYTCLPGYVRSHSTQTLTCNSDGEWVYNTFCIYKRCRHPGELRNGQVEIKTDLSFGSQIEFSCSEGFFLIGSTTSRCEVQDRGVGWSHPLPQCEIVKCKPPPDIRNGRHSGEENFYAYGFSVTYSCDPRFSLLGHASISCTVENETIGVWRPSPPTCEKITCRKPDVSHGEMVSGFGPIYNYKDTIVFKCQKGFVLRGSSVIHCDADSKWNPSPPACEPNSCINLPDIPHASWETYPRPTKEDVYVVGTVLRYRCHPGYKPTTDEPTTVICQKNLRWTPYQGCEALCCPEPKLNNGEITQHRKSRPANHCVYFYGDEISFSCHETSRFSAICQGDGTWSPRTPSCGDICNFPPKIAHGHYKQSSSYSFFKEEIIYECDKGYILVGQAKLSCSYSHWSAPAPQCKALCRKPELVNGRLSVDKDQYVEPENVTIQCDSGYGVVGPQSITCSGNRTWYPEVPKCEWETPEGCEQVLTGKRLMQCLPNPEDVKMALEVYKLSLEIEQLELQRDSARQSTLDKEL
Source text: The difference in KD observed for the peptide and protein might in part be due to post translational modification of the protein.

C4BP [4] = target: T2, C4BP; conditions: Ca2+-free; read-out: dissociation constant KD of the complex with C4BP; cited from earlier work
[5] = target: T3, C4b-binding protein (C4BP), species containing the protein S binding β-chain, purified from human plasma (human, UniProt P04003 49-597; P20851 18-252); assay: competition, equilibrium binding in microtiter wells: peptide against a trace of 125I-labelled human protein S on immobilised C4BP, TBS with 10 mM EDTA, 4 °C overnight, gamma counting
T3 construct: mature; Isolated from human plasma as the protein S-C4BP complex, dissociated in 3 M guanidine-HCl and purified further; predominantly C4BPβ, and a minor proportion lacking the β-chain may be present; Immobilised on microtiter wells or on a CM5 sensorchip; also called C4BPβ
T3 sequence (looked up) 1: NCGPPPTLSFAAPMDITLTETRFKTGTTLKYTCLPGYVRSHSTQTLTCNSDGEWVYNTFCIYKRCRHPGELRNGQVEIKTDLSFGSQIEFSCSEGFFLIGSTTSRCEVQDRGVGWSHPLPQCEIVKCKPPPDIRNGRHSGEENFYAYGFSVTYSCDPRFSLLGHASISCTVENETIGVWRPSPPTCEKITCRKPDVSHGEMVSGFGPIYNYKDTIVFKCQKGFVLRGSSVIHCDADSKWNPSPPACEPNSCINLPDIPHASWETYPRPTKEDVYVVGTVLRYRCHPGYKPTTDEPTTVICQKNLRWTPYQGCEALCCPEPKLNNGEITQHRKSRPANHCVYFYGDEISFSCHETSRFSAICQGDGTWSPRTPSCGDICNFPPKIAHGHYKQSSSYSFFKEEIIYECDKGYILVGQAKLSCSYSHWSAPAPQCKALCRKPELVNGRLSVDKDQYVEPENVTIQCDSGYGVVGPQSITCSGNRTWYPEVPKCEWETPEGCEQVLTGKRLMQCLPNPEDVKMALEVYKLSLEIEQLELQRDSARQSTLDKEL
T3 sequence (looked up) 2: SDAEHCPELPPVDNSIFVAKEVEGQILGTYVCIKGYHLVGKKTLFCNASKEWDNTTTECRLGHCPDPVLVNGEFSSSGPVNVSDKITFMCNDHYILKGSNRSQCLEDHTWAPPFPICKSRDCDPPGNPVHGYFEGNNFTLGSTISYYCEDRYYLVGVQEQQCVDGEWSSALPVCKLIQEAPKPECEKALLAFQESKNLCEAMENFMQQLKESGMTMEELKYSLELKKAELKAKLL
Description: as §1
as §2, with “(◊)” for “(⋄)”, “(▼)” for “(▾)”, “(▽)” for “(∇)”, “$Smax$,” for “Smax,”, “$X=(S-0.04)/0.96\ Smax$.” for “X=(S−0.04)/0.96 Smax.”

[6] = target: T3, C4b-binding protein (C4BP), species …; assay: SPR (BIAcore) competition: 50 nM human protein S mixed with peptide, flowed over immobilised C4BP (8000 RU), HC buffer; percent protein S bound calculated from the response
Description: The surface plasmon resonance studies were performed using a BIAcore™ apparatus from Pharmacia Biosensor AB. Immobilization of C4BP to the dextran coated gold surface of a sensorchip was performed at a flow rate of 5 μl/min, using HC as flow buffer. Equal volumes of 0.1 M NHS and 0.1 M EDC were first mixed, whereafter 30 μl of the mixture was flown over the sensorchip surface to activate the carboxymethylated dextran. C4BP was then injected over the sensorchip (40 μl of a 60 μg/ml solution in 10 mM NaOAc at pH 4.75), whereafter unreacted NHS-ester groups were blocked by 15 μl 1M ethanolamine (pH 8.5). […] Protein S association was monitored with 50 nM human protein S in HC buffer in a continuous flow of 1 μl per minute during 45 minutes. […] The percent protein S bound, X, was calculated as $$X=(S-0.04Smax)/0.96Smax$$
In these figures, peptide inhibition of the protein S-C4BP interaction is shown as the amount of protein S bound (relative to the amount bound in the absence of peptide) versus concentration of the nine peptides listed in Table 1: (o) SL1, (♦) SL2, (□) SL3, (+) SL4, (◊) SL5, (●) SL6, (▼) SL7, (Δ) BD4 & (▽) BD6. […] The amount of protein S bound, X, was calculated from the observed signal intensity, S, compared to the maximum signal intensity in the absence of peptide $Smax$, as $X=(S-0.04)/0.96\ Smax$.

[7] = target: T3, C4b-binding protein (C4BP), species …; assay: unlabelled protein S competing with 125I-protein S tracer for immobilised C4BP in microtiter wells, EDTA buffer
Description: as §1
as §2, with “(◊)” for “(⋄)”, “(▼)” for “(▾)”, “(▽)” for “(∇)”, “$Smax$,” for “Smax,”, “$X=(S-0.04)/0.96\ Smax$.” for “X=(S−0.04)/0.96 Smax.”

## SGIAQFHIDYNNVSSAEGWHVN [SL6]
[1]
  IC50: 100 to 200 µM
[2]; 50 nM human protein S, immobilized C4BP, read-out: half maximum inhibition, peptide concentration
  IC50: 30 to 120 µM
C4BP [3]
  Kd: ≤ 1 µM

## plasma purified human protein S: plasma purified human protein S, unlabelled competitor of radiolabelled protein S
C4BP [4]
  Kd: 0.0065 µM

## DKAMKAKVATYLGGLPDVPFSAT [SL4]
[2]; 50 nM protein S, peptide up to 100 μM (2000-fold excess)
  effect on binding of human protein S to C4BP (SPR response): the same response was observed as with protein S alone

## LVTVEKGSYYPGSGIAQFHIDYNNVSSAEGWHVN [SL7 synthetic peptide (protein S residues 435-468)]
[5]
  IC50 (read off the curve): ~90 µM

## EKGSYYPGSGIAQFHIDYNNVS [SL2 synthetic peptide (protein S residues 439-460)]
[6]
  IC50 (read off the curve): ~40 µM
[5]
  IC50 (read off the curve): ~200 µM

B1: plasma purified human protein S (other, UniProt P07225 42-676, looked up)
chain: ANSLLEETKQGNLERECIEELCNKEEAREVFENDPETDYFYPKYLVCLRSFQTGLFTAARQSTNAYPDLRSCVNAIPDQCSPLPCNEDGYMSCKDGKASFTCTCKPGWQGEKCEFDINECKDPSNINGGCSQICDNTPGSYHCSCKNGFVMLSNKKDCKDVDECSLKPSICGTAVCKNIPGDFECECPEGYRYNLKSKSCEDIDECSENMCAQLCVNYPGGYTCYCDGKKGFKLAQDQKSCEVVSVCLPLNLDTKYELLYLAEQFAGVVLYLKFRLPEISRFSAEFDFRTYDSEGVILYAESIDHSAWLLIALRGGKIEVQLKNEHTSKITTGGDVINNGLWNMVSVEELEHSISIKIAKEAVMDINKPGPLFKPENGLLETKVYFAGFPRKVESELIKPINPRLDGCIRSWNLMKQGASGIKEIIQEKQNKHCLVTVEKGSYYPGSGIAQFHIDYNNVSSAEGWHVNVTLNIRPSTGTGVMLALVSGNNTVPFAVSLVDSTSEKSQDILLSVENTVIYRIQALSLCSDQQSHLEFRVNRNNLELSTPLKIETISHEDLQRQLAVLDKAMKAKVATYLGGLPDVPFSATPVNAFYNGCMEVNINGVQLDLDEAISKHNDIRAHSCPSVWKKTKNS
modifications: 125I-labelled where used as tracer in the microtiter equilibrium assay
notes: mature; also called PS; free protein S
[7]
  IC50: ~2 µM

## SGIAQFHIDYNNVSSAEGWHVN [SL6 synthetic peptide (protein S residues 447-468)]
[6]
  IC50 (read off the curve): ~30 µM
